According to patent publication US20150368338A1 (Janssen / Centocor, published 2015):
Positions count from the first letter of the chain named. Values belong to the binder of their own block, whether it stands above or below them.

Columns and labels:
Assay in all cases: ProteOn, one antigen concentration
[1] = biological target: T1, IFN-α4a (human, UniProt P05014 24-189)
T1 construct: also called IFN-αM1

[2] = biological target: T2, human IFN-ω (human, UniProt P05000 24-195)
T2 construct: also called interferon omega

[3] = biological target: T3, IFN-αC (human, UniProt P01566 24-189)
T3 construct: also called IFN-α10; alpha C

[4] = biological target: T4, IFN-αJ1 (human, UniProt P01567 24-189)
T4 construct: also called IFN-α7; alpha J1

[5] = biological target: T5, IFN-αWA (human, UniProt P05015 24-189)
T5 construct: also called IFN-α16; alpha WA

[6] = biological target: T6, IFN-αF (human, UniProt P01568 24-189)
T6 construct: also called IFN-α21; alpha F
T6 chain: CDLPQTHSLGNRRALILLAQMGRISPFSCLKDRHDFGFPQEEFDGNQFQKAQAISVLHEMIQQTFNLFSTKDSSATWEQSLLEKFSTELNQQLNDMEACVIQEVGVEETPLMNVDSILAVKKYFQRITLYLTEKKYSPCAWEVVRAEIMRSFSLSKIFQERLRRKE

[7] = biological target: T7, IFN-αG (human, UniProt P01569 24-189)
T7 construct: also called IFN-α5; alpha G

B2: IFWM3311 (antibody, V domains shown)
VH: EVQLVQSGAEVKKPGESLKISCKGSGYSFTSYWIGWVRQMPGKGLEWMGIIDPSDSDTRYSPSFQGQVTISADKSISTAYLQWSSLKASDTAMYYCARHPGLNWAPDFDYWGQGTLVTVSS
VL: DIQMTQSPSSLSASVGDRVTITCRASQSIDDFLNWYQQKPGKAPKLLIYFASSLQSGVPSRFSGSGSGTDFTLTISSLQPEDFATYYCQQSHTLPLTFGQGTKVEIK
notes: VH IFWH591, VL IFWL1009; converted mAb; also called IFWB3046
Kd [1]: 0.223 nM
Kd [2]: 0.012 nM
Kd [3]: 0.036 nM
Kd [4]: 0.056 nM
Kd [5]: 0.072 nM
Kd [6]: 0.021 nM
Kd [7]: 0.056 nM

B5: IFWM3341 (antibody, V domains shown)
VH: B2 VH with R59A
VL: B2 VL with D30N, D31R, F50A, S91A, H92I, T93D, L96F
notes: VH IFWH624, VL IFWL991; converted mAb; also called IFWB3076
Kd [1]: 0.445 nM
Kd [2]: 0.008 nM
Kd [3]: 0.104 nM
Kd [4]: 0.275 nM
Kd [5]: 0.134 nM
Kd [6]: 0.088 nM
Kd [7]: 0.063 nM

B6: IFWM3318 (antibody, V domains shown)
VH: B2 VH
VL: B2 VL with D30S, D31E, F32Y, T93S, L96I
notes: VH IFWH591, VL IFWL1038; converted mAb; also called IFWB3053
Kd [1]: 0.252 nM
Kd [2]: 0.018 nM
Kd [3]: 0.03 nM
Kd [4]: 0.119 nM
Kd [5]: 0.091 nM
Kd [6]: 0.034 nM
Kd [7]: 0.04 nM

B7: IFWM3319 (antibody, V domains shown)
VH: B2 VH
VL: B2 VL with D30T, D31G, F50A, T93D, L94F
notes: VH IFWH591, VL IFWL1041; converted mAb; also called IFWB3054
Kd [1]: 0.274 nM
Kd [2]: 0.034 nM
Kd [3]: 0.052 nM
Kd [4]: 0.151 nM
Kd [5]: 0.107 nM
Kd [6]: 0.044 nM
Kd [7]: 0.049 nM

B9: IFWM3322 (antibody, V domains shown)
VH: B2 VH
VL: B2 VL with D30A, T93S, L94F
notes: VH IFWH591, VL IFWL1051; converted mAb; also called IFWB3057
Kd [1]: 0.272 nM
Kd [2]: 0.04 nM
Kd [3]: 0.042 nM
Kd [4]: 0.127 nM
Kd [5]: 0.086 nM
Kd [6]: 0.033 nM
Kd [7]: 0.058 nM

B10: IFWM3346 (antibody, V domains shown)
VH: B2 VH with R59A
VL: B2 VL with D30G, S91A, H92L, T93D, L94F
notes: VH IFWH624, VL IFWL1001; converted mAb; also called IFWB3081
Kd [1]: 0.48 nM
Kd [2]: 0.052 nM
Kd [3]: 0.105 nM
Kd [4]: 0.505 nM
Kd [5]: 0.17 nM
Kd [6]: 0.117 nM
Kd [7]: 0.086 nM

B11: IFWM3343 (antibody, V domains shown)
VH: B2 VH with R59A
VL: B2 VL with D30G, D31S, F32A, H92Y, T93D, L94F
notes: VH IFWH624, VL IFWL997; converted mAb; also called IFWB3078
Kd [1]: 0.237 nM
Kd [2]: 0.02 nM
Kd [3]: 0.065 nM
Kd [4]: 0.157 nM
Kd [5]: 0.083 nM
Kd [6]: 0.063 nM
Kd [7]: 0.06 nM

B12: IFWM3342 (antibody, V domains shown)
VH: B2 VH with R59A
VL: B2 VL with D30G, D31S, H92Y, T93S, L94I, L96I
notes: VH IFWH624, VL IFWL992; converted mAb; also called IFWB3077
Kd [1]: 0.589 nM
Kd [2]: 0.068 nM
Kd [3]: 0.142 nM
Kd [4]: 0.269 nM
Kd [5]: 0.095 nM
Kd [6]: 0.164 nM
Kd [7]: 0.014 nM

B14: IFWM3344 (antibody, V domains shown)
VH: B2 VH with R59A
VL: B2 VL with D30S, D31K, H92N, L96F
notes: VH IFWH624, VL IFWL998; converted mAb; also called IFWB3079
Kd [1]: 0.442 nM
Kd [2]: 0.078 nM
Kd [3]: 0.161 nM
Kd [4]: 0.274 nM
Kd [5]: 0.105 nM
Kd [6]: 0.14 nM
Kd [7]: 0.112 nM

B16: IFWM3347 (antibody, V domains shown)
VH: B2 VH with R59A
VL: B2 VL with D30A, D31E, H92I, T93D, L94F
notes: VH IFWH624, VL IFWL1004; converted mAb; also called IFWB3082
Kd [1]: 0.35 nM
Kd [2]: 0.048 nM
Kd [3]: 0.096 nM
Kd [4]: 0.411 nM
Kd [5]: 0.125 nM
Kd [6]: 0.136 nM
Kd [7]: 0.084 nM

B17: IFWM3317 (antibody, V domains shown)
VH: B2 VH
VL: B2 VL with D30S, D31K, H92Y, T93D, L94F, L96I
notes: VH IFWH591, VL IFWL1026; converted mAb; also called IFWB3052
Kd [1]: 0.37 nM
Kd [2]: 0.016 nM
Kd [3]: 0.133 nM
Kd [4]: 0.206 nM
Kd [5]: 0.162 nM
Kd [6]: 0.121 nM
Kd [7]: 0.126 nM

B19: IFWM3315 (antibody, V domains shown)
VH: B2 VH
VL: B2 VL with D30T, D31S, F32S, H92F, T93D
notes: VH IFWH591, VL IFWL1017; converted mAb; also called IFWB3050
Kd [1]: 0.24 nM
Kd [2]: 0.063 nM
Kd [3]: 0.059 nM
Kd [4]: 0.134 nM
Kd [5]: 0.115 nM
Kd [6]: 0.05 nM
Kd [7]: 0.061 nM

B20: IFWM3345 (antibody, V domains shown)
VH: B2 VH with R59A
VL: B2 VL with D30T, D31N, H92L, T93D, L94F
notes: VH IFWH624, VL IFWL1000; converted mAb; also called IFWB3080
Kd [1]: 0.324 nM
Kd [2]: 0.004 nM
Kd [3]: 0.072 nM
Kd [4]: 0.169 nM
Kd [5]: 0.111 nM
Kd [6]: 0.12 nM
Kd [7]: 0.092 nM

Now those with a lower Kd [1], led by results:

Kd [1]: 0.177 nM
Kd [2]: 0.065 nM
Kd [3]: 0.057 nM
Kd [4]: 0.101 nM
Kd [5]: 0.091 nM
Kd [6]: 0.04 nM
Kd [7]: 0.054 nM
B1: IFWM3310 (antibody, V domains shown)
VH: B2 VH
VL: B2 VL with D30G, D31K, F32S, H92Y, T93D, L94F
notes: VH IFWH591, VL IFWL1007; converted mAb; also called IFWB3045

Kd [1]: 0.092 nM
Kd [2]: 0.02 nM
Kd [3]: 0.026 nM
Kd [4]: 0.039 nM
Kd [5]: 0.042 nM
Kd [6]: 0.021 nM
Kd [7]: 0.028 nM
B3: IFWM3314 (antibody, V domains shown)
VH: B2 VH
VL: B2 VL with D31R, F32A, H92F, T93D, L94F
notes: VH IFWH591, VL IFWL1014; converted mAb; also called IFWB3049

Kd [1]: 0.111 nM
Kd [2]: 0.011 nM
Kd [3]: 0.022 nM
Kd [4]: 0.092 nM
Kd [5]: 0.091 nM
Kd [6]: 0.032 nM
Kd [7]: 0.033 nM
B4: IFWM3325 (antibody, V domains shown)
VH: B2 VH
VL: B2 VL with D30R, D31N, F32S, Y49K, F50W, S91L, H92Y, T93D, L94W
notes: VH IFWH591, VL IFWL1060; converted mAb; also called IFWB3060

Kd [1]: 0.201 nM
Kd [2]: 0.004 nM
Kd [3]: 0.048 nM
Kd [4]: 0.124 nM
Kd [5]: 0.056 nM
Kd [6]: 0.041 nM
Kd [7]: 0.024 nM
B8: IFWM3340 (antibody, V domains shown)
VH: B2 VH with R59A
VL: B2 VL with D31G, F32S, H92Y, T93D, L94F
notes: VH IFWH624, VL IFWL983; converted mAb; also called IFWB3075

Kd [1]: 0.168 nM
Kd [2]: 0.042 nM
Kd [3]: 0.042 nM
Kd [4]: 0.07 nM
Kd [5]: 0.073 nM
Kd [6]: 0.033 nM
Kd [7]: 0.087 nM
B13: IFWM3316 (antibody, V domains shown)
VH: B2 VH
VL: B2 VL with D30N, D31E, H92Y, T93S, L94T
notes: VH IFWH591, VL IFWL1022; converted mAb; also called IFWB3051

Kd [1]: 0.089 nM
Kd [2]: 0.021 nM
Kd [3]: 0.02 nM
Kd [4]: 0.061 nM
Kd [5]: 0.041 nM
Kd [6]: 0.013 nM
Kd [7]: 0.033 nM
B15: IFWM3320 (antibody, V domains shown)
VH: B2 VH
VL: B2 VL with D30N, D31G, F32V, T93D, L94F
notes: VH IFWH591, VL IFWL1047; converted mAb; also called IFWB3055

Kd [1]: 0.159 nM
Kd [2]: 0.033 nM
Kd [3]: 0.033 nM
Kd [4]: 0.079 nM
Kd [5]: 0.058 nM
Kd [6]: 0.024 nM
Kd [7]: 0.036 nM
B18: IFWM3321 (antibody, V domains shown)
VH: B2 VH
VL: B2 VL with D31G, F32A, S91A, H92Y, T93D, L94F
notes: VH IFWH591, VL IFWL1048; converted mAb; also called IFWB3056
